# Reference: publication PMC12439145
# Key:
# Experiment in all cases: flow cytometry
# Details in all cases: apparent Kd on cells; SPR at 25 C, His-KIT on CM5 chip, 50 mM NaOH regeneration; flow cytometry with 250 nM Cy5-aptamer in binding buffer with 1 mg/ml BSA and 1 mM yeast tRNA; salt …
# [1] = target: KIT on GIST-430 cells (human (GIST-430)) (UniProt P10721)
# [2] = target: KIT on GIST-430/654 cells (human (GIST-430/654)) (UniProt P10721)
# [3] = target: KIT on GIST-T1 cells (human (GIST-T1)) (UniProt P10721)
# Chain of KIT on GIST-T1 cells (human (GIST-T1)) (P10721 26-976): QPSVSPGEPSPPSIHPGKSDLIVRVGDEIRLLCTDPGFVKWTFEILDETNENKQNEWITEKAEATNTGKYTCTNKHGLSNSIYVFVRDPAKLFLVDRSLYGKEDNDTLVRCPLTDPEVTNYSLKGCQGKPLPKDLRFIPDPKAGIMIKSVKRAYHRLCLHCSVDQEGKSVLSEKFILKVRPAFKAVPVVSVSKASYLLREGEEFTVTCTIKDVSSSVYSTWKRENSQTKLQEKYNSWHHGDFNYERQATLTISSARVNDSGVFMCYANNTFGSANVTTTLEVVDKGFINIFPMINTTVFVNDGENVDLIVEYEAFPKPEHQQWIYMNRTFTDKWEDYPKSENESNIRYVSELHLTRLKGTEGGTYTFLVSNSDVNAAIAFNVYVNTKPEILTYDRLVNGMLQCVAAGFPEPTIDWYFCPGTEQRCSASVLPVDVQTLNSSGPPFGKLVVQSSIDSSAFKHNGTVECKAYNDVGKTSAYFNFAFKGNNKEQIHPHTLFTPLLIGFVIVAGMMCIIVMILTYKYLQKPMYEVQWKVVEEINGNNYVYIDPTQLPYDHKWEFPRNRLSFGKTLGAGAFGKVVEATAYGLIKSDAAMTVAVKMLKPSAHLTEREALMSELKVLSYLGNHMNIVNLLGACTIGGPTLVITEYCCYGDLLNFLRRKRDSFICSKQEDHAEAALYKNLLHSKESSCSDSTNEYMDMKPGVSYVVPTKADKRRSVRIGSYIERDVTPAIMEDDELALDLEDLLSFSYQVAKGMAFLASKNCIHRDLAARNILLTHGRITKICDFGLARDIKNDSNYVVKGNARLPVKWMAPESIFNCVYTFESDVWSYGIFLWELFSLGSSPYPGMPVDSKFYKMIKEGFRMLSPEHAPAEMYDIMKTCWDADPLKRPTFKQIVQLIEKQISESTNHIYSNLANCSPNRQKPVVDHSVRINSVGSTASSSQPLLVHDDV
# Chain of KIT on GIST-430/654 cells (human (GIST-430/654)) (P10721 26-976): as above
# Chain of KIT on GIST-430 cells (human (GIST-430)) (P10721 26-976): as above
sequence,measurement,setting,value
ATTCAAGGGGCCGGGGCAAGGGGGGGGTACCGTGGTAGGACATAGT [KIT-d],Kd,[1],41.6 nM
same,Kd,[2],109 nM
same,Kd,[3],76 nM
